The chains are these.
B1: Shingleback nidovirus 1 (nucleic acid)
DNA: CTGTGAGTACCGACAGGCTCGAAGTCTATTATGAGGCGTCGAAACAGAAAACCTGTAACAACTCCGGTTTCATCTATCACTGCCGTCAAGAGGCAGAAGAGGACGACCACGTGTCACCAGATCACTTGTATCTGTTTCAGTCAGGAAGTCAACTTTTCGACGAAGTTCGACCATTCATCGACCCGCTGAAAAGCGTAGAAGTCGATGAAGATGAGCTCCAAAGAGCCATCGCCGATTTCGACAACCAAAGTGACTGTTTCCACTCCTTCGAGCTCGTGAATTTCGAGCTGAAACAACAAATCAACGAGAACGAGTGGTACGGTTATTATAATTACGACAACCAAAACTGCAAAGTTCAGTTGCCAGTCACATGTCGAATCGAGGACGTAACCTGGGATCAGGTTTACGTG
modifications: Shingleback nidovirus 1
B2: Rabovirus A (nucleic acid)
DNA: CTACGGATATTTGCATGACCCGCTTTCTATCGCCCCAACAATCCCCTTTGTAACCACAAGCTTTACTCAGGCTAGCAGCCCGACTAGCTGTTTGGAAGAAAAGGCTAGGGCACACACCAACAACACCGACCCCACTGGTCGAAGGCCGCTTGGCAATAAGACTGGTGGAACAGGGTCGCCTGTAGTTGTTTGGAACATTCTTTCTAATGACTTTGTCAGCGGTGCTACTCACACCGTAACTCTTCTACCCTATCCCCACGCTTGTGGAACTAGGAGGGGATGAGTGATTCAAGTAAGTACTGTCAGAATGGTGAAAATGATCTGATTCTGAAACGCTATGGATCCATCGAAAGATGGGGCTACACGCCTGCGGAACAACACATGGTAACATGTGCCCCAGGGGCCGAAAGCCACGGTGATAGGATCACCCGTGTAGTTTGAGATCATATCAATGTTCATAGTCTAGTAAGATGATTTGAAATCTAACTGAGCTGATGGCTAACTGCTTGTCTTATTGCGGCCTAAGGATGTCCTGCAGGTACCTTTAGATAACCTTAAGAGACTATTGATCTGAGCAGGAGCCAAAGTGGTCTTTCCCAGCTTTGGTTAAAAAACGTCTAAGCCGCGGCAGGGGGCGGGAGGCCCCCTTTCCTCCCAAAACTTAATATTGATTGT
modifications: Rabovirus A
B3: Wobbly possum disease virus (nucleic acid)
DNA: CGGCTGTGAGTGCTTAGCATATGCTAGAGTACTACAGCCGGGTGTTGGAGTCATATGCACTGGTTGCCTGTATAATAGTCGGGATCTGTCTGACCTACATTATCTTTGGGAGTTGCTTATCACGACAATTCTCGAAGTGTCTGTCGACAGCTTACCCCCGATTCGACAAGGCCCCTTGTCCACCGCAGACCTATCGATTTTCAACGAGAACACTATCAGAGGTTTAAATTTAAAACTCACCAACA
B4: Yak enterovirus (nucleic acid, listed as Enterovirus sp.)
DNA: CTCCGGCACAGCCGCACCAGTGCACTGGTACGCTAGTACCTTTTCACGGGGTAGTCGGTATCCCCCCCCGTAACTTAGAAGCATGTAACAAACCGACCAATAGGTGCGCGGCAGCCAGCTGCGTTGCGGTCAAGCACTTCTGTCTCCCCGGTCCGCAAGGATCGTTACCCGCCCACTCCACTACGAGGAGCCTAGTAACTGGCCAAGTGATTGCGGAGTTGCGTTCAGCCACAACCCCAGTGGTAGCTCTGGAAGATGGGGCTCGCACATCCCCCGTGGTAACACGGTTGCTTGCCCGCGTGTGCTTCCGGGTTCAGTCTCCGACTGTTCACTTCAACATCACGCAACCAGCCAAGAGCCGATTGTGCTGGAGTGGTCTTCCTCCGGGGCCGTGAATGCTGCTAATCCTAACCTCCGAGCGTGTGCGCACAATCCAGTGTTGCTACGTCGTAACGCGTAAGTTGGAGGCGGAACAGACTACTTTCGGCACCCCGTGTTTCCTTTATTTTATTCTTATTTTATGGTGACAATTGCAGAGATTTGTGATATTGCGACTTTACCGTTAAACATAGCACTGCATTACCTGGTTGCATTCCACAAAACTTCAGAGATTCCTAGTTCCTACATTGACCTACTTGTTTATTTGAATCTTAAATACAAACTTGAGCAAGTGAA
B5: Avian orthoreovirus segment S1 (nucleic acid, listed as Avian orthoreovirus)
DNA: GCTTTTTCAATCCCTTGTGTCGATGTTCCCGTATGTCATCTGGTTCATGTAACGGTGCAACTTCTATTTTTGGTAACGTTCACTGTCAGGCAGCGCAAAACTCGGCGGGTGGTGATCTTCAAGCGACTTCCTCTCTTGTTGCTTATTGGCCCTACTTGGCTGCGGGCGGTGGTCTGCTCGTTGTTATTATTATAATTGTTGGCGCTGTTTGTTGTTGCAAGGCTAAGGTTAAAGCGGACGCAGCCCGAAACGTTTTCTACCGAGAGCTGTTCGCACTTAATTCGGGTAAAAGTGATGCAGGACCTCCGATTTACCAGGTTTAGTGTACGACGATTTGAGTTTTCACCTTTCGTCTTAGAGGAGTGCACTACTCCATCTTTCACGACTATAACTAATACCGATCCGGCTCTCTACTTTAACATTGAGTTTCCGTCAAGTCATCGTCTCTCCCCCTTCATTCCAGAACTGTTGTCTCAGCCTTGTACCGTTCACGTTTCATTGATTCGGAGATTCGCTCTCTGTGCAACCTTATCTAGTATTTGTGAATACGACTGTGCGCTACTGCCATCCATCAACGCTATTACGACGATCCCTACACCAGGTGCGTCATCATCTCTGATTGTTCATTGGG
B6: Livupivirus (nucleic acid, listed as Livupivirus sp.)
DNA: TATCTACATGGGGATCCAGGCTGTATGGAATGTCTGTCTTAACAAGCACTATACCAGAAAGATCCACCCAAAGTGGTGGGACTGGGACTGTGAGGTGAGAAATCCCGAAACCAGCCTTCTCAAGCGTCGGACGATCTTTCTGTTTTAGTGAACACCTTGCCTTTTAAATGGATGACAACACCCCTTCAGCAAATCGCAATCTGAAATCCCAAAAGACTGTTTAGCCGAACTCTGGTAATCACTCCGGAGAAGTAGGATACGCAGCCCCTGTGGACTCTTGATTTCAGGACTCAAGGTAGCTAGAGCTGGAACTTCATGGAATGACAAAGGAATATATGCACATTGTGCGCTTTCCTGGCCTTGTAGCCCGTCGTGAGGATATGTCGTTGGGAATCGACATCTTAGTCCAGTACTGCTTGATAGAGTGTCGGCTGGCACAGTTACCTGAGAATAAGTCAGTTGTACTTAACATGAACAAAAAAAATAACTACCACAACTACCACAATCTACCAATACTTGAATTATGCTGAATCTCGTACAGTAAAAACGTTCCGTGGAAGGACAAGTATTGAAGTGCGGTTACATCATCCGATACGCGCTGGATCCCTCA
B7: Caprine Kobuvirus d10 (nucleic acid, listed as Kobuvirus sp.)
DNA: GGGGCCTCGGCCCCCTCACCCTCTTTTCCGGTGGCCACGCCCGGGCCACCGATACTTCCCTTCACTCCTTCGGGACTGTTGGGGAGGAACACAACAGGGCTCCCCTGTTTTCCCATTCCTTCCCCCTTTTCCCAACCCCAACCGCCGTATCTGGTGGCGGCAAGACACACGGGTCTTTCCCTCTAAAGCACAATTGTGTGTGTGTCCCAGGTCCTCCTGCGTACGGTGCGGGAGTGCTCCCACCCAACTGTTGTAAGCCTGTCCAACGCGTCGTCCTGGCAAGACTATGACGTCGCATGTTCCGCTGCGGATGCCGACCGGGTAACCGGTTCCCCAGTGTGTGTAGTGCGATCTTCCAGGTCCTCCTGGTTGGCGTTGTCCAGAAACTGCTTCAGGTAAGTGGGGTGTGCCCAATCCCTACAAAGGTTGATTCTTTCACCACCTTAGGAATGCTCCGGAGGTACCCCAGCAACAGCTGGGATCTGACCGGAGGCTAATTGTCTACGGGTGGTGTTTCCTTTTTCTTTTCACACAACTCTACTGCTGACAACTCACTGACTATCCACTTGCTCTCTTGTGCCTTTCTGCTCTGGTTCAAGTTCCTTGATTGTTTTTGACTGCTTTTCACTGCTTTTCTTCTCACAATCCTTGCTCAGTTCAAAGTC
B8: Seneca valley virus (nucleic acid)
DNA: TTTGAAATGGGGGGCTGGGCCCTGATGCCCAGTCCTTCCTTTCCCCTTCCGGGGGGTTAACCGGCTGTGTTTGCTAGAGGCACAGAGGGGCAACATCCAACCTGCTTTTGCGGGGAACGGTGCGGCTCCGATTCCTGCGTCGCCAAAGGTGTTAGCGCACCCAAACGGCGCACCTACCAATGTTATTGGTGTGGTCTGCGAGTTCTAGCCTACTCGTTTCTCCCCCGACCATTCACTCACCCACGAAAAGTGTGTTGTAACCATAAGATTTAACCCCCGCACGGGATGTGCGATAACCGTAAGACTGGCTCAAGCGCGGAAAGCGCTGTAACCACATGCTGTTAGTCCCTTTATGGCTGCAAGATGGCTACCCACCTCGGATCACTGAACTGGAGCTCGACCCTCCTTAGTAAGGGAACCGAGAGGCCTTCGTGCAACAAGCTCCGACACAGAGTCCACGTGACTGCTACCACCATGAGTACATGGTTCTCCCCTCTCGACCCAGGACTTCTTTTTGAATATCCACGGCTCGATCCAGAGGGTGGGGCATGACCCCTAGCATAGCGAGCTACAGCGGGAACTGTAGCTAGGCCTTAGCGTGCCTTGGATACTGCCTGATAGGGCGACGGCCTAGTCGTGTCGGTTCTATAGGTAGCACATACAAAT
B9: Sclerotinia sclerotiorum dsRNA mycovirus-L (nucleic acid)
DNA: TTGAATTAATCTTTTACGTTTACGCGCATAAAATCAGGACACATCTCTTGTATACTTTAGTATATCAATGATGTTTTTGTTTTATGCGATTAATCGTAAGAGAACTTCTTTCCATCCGCCTGTATGGGCGGGATAATAAGTTCACCGCCTTGGTCGAGGCGCAAACTTGTATGTGCAAAGGTGAGCTATATGCTCGAAATAGTCGTAACTAACACACAGCCACTACCTGTAGAGCTCTATTGATCCGGAATCCTTTAGTGGGAATGCAGAGCTCACACCGGACCTGCGGGTATCTTCGGCGTTAGGGACTTCTGTTTCAGCCTTGAATCATTTACCTTTATACCTTCTCTGAGGCGCCTGGGCCGGGCGCGATATTAAGTACAAGTCAAGGACATCGCGGGTAGTGGTCTAATCAGCCGCTAGTCCTGCTGGAGAGTTCCAACTTAGTTGGGTGTGGTGCATACTAGCTGGATAGAGTAGGTATGTATTGCTAACGTATGCCGGAGGCTATCCGTCCTCGGTAGAACGTGCCGAGGAGTAGTCTCTGCAGACCCCCGAACGCGTGGGGTCTTTACTTAAATGTAGGCGGAGGGAGCGCTCGTAGGTGGAACGACTGCCTCCCAGTCGAATGCAAGATTTTGCACGCGGACCAGTCTGCCCGGCAATTCCCGGGTG

From US20230226096A1 (Orna Therapeutics, Inc., priority 2020, published 2023) come the findings set out here.

The series concerns HEK293 cells. In kind it is cell-based, human. The settings on record: luminescence from secreted Gluc in supernatant 24 hours after transfection of HEK293 cells; circular RNA encoding Gluc with the named IRES (UTR truncated to 675 nt).
Take B1: the Expression is recorded as 2.62E+05.

The molecule B2 had an Expression of 2.88E+06.

In turn, B3 yielded an Expression of 2.60E+05.

B4 came in with an Expression of 6.19E+06.

As to B5, the Expression is recorded as 4.37E+05.

Turning to B6, the Expression came to 2.10E+05.

B7 yielded an Expression of 2.20E+08.

Regarding B8, the Expression was determined as 1.46E+07.

Molecule B9 showed an Expression of 1.69E+05.
